Consider one molecule from patent publication US6664048 (MAX PLANCK GESELLSCHAFT ZUR FURDERUNG DER WISSENSCHAFTEN E V, dated 2003).

The target of this assay is T1, LexA protein expressed from pBTM117c (UniProt P0A7C2 1-202).
T1 construct: range 1-220
T1 sequence (looked up): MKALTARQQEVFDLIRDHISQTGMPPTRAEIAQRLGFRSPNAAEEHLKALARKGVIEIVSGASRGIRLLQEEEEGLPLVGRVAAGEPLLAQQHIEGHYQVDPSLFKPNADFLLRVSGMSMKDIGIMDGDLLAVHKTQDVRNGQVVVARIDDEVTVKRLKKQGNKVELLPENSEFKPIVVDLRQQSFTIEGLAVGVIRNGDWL
Nature of the assay: yeast two-hybrid in L40cc, growth on SD-leu-trp-his and β-galactosidase membrane assay. The source says:
Detection of Clones Expressing Known Interacting Proteins From False Positives Using the Improved Two-hybrid System Pairs of the yeast two-hybrid plasmids pBTM117cSIM1 & pGAD427-ARNT, pBTM117c & pGAD427 and pBTM117c-HIP1 & pGAD427 were transformed into the yeast strain L40cc, and Trp+Leu+ transformants that contained at least one of each of the two plasmids were selected on SD-leu-trp plates. Two transformants from each transformation were investigated for the presence of protein-protein interactions by testing the ability of the yeast cells to grow on SD-leu-trp, SD-leu-trp-his, SD-leu+CAN and SD-trp+CHX plates and by the β-galactosidase membrane assay (Breeden and Nasmyth, 1985). […] After selection of the yeast strains harboring the different combinations of the two-hybrid plasmids on SD-leu+CAN and SD-trp+CHX the resulting strains were also analyzed by the β-galactosidase assay. After incubating the membrane containing all three strains on SD-trp+CHX medium only progeny of the yeast strain that originally harbored both the plasmids pBTM117c-HIP1 & pGAD427 yet which had lost the pGAD427 plasmid through counterselection turned blue after incubating in X-Gal solution. […]

B1: GAL4ad protein expressed from pGAD427 (other, yeast, UniProt P04386 768-881, looked up)
chain: ANFNQSGNIADSSLSFTFTNSSNGPNLITTQTNSQALSQPIASSNVHDNFMNNEITASKIDDGNNSKPLSPGWTDQTAYNAFGITTGMFNTTTMDDVYNYLFDDEDTPPNPKKE
notes: range 768-881
As to B1, the binding result is recorded as “no binding”.
